Assay results reported in doi:10.1101/2020.09.12.286559 (bioRxiv, 2020).

How the values were obtained:
[1] = target: T1, Recombinant N-terminal His6-tagged TRF1 (human), P54274; test: AFM volume analysis; conditions: remark: other sources report otherwise
T1 chain: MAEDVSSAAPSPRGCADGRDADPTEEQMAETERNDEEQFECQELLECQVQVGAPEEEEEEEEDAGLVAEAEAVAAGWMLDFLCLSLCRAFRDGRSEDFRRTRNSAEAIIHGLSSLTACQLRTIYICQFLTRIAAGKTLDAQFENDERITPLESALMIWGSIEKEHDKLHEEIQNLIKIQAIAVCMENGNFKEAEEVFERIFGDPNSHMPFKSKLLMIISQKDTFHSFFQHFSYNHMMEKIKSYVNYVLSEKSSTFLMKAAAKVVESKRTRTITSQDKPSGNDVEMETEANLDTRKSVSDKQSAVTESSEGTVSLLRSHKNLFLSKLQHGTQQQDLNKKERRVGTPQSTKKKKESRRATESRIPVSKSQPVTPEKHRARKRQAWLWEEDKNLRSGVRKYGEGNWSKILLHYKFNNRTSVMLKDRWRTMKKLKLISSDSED

[2] = target: T2, N-terminal HA-tagged TIN2L (HA-TIN2L, 1-451 aa) (human, UniProt Q9BSI4-1 1-451); test: native gel or EMSA
T2 sequence: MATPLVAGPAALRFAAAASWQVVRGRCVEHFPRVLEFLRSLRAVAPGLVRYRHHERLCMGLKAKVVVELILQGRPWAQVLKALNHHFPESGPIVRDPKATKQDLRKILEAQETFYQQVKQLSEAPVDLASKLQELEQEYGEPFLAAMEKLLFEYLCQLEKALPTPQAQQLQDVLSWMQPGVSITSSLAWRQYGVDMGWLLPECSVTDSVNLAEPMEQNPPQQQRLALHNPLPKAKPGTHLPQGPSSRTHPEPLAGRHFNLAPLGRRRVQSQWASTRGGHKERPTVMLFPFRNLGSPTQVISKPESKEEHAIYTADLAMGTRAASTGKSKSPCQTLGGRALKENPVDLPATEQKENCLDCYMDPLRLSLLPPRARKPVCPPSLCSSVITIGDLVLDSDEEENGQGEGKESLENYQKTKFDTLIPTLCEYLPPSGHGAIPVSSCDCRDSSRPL

B1: Recombinant N-terminal His6-tagged TRF1 (natural protein)
chain: T1 chain
**Q.** What does the source list for B1?
**A.** stoichiometry N [1]: 2; binding result [2]: binds
